Source: patent US10919937 (Bicycle, dated 2021)
Where “and” joins values, the source holds several entries; their conditions need not be identical. Equal values may be shown once. One block for each binder: values may come before it. *1 amine or outer side, *2 acyl side, *3 side chain or, on linkers, in order; H or OH if unused. Bridges are numbered along the chain shown (N, C = ends). Primed or numbered codes have the meaning given here. Where no end group is shown, it is not given here. [ ]: non-standard residue; d: D form. MSR‑C = 1-[4-[4-[4,6-bis[4-[1-(2-chloroacetyl)-4-piperidyl]piperazin-1-yl]-1,3,5-triazin-2-yl]piperazin-1-yl]-1-piperidyl]-2-chloro-ethanone, O=C(C[*:1])N1CCC(N2CCN(c3nc(N4CCN(C5CCN(C(=O)C[*:2])CC5)CC4)nc(N4CCN(C5CCN(C(=O)C[*:3])CC5)CC4)n3)CC2)CC1; MSR‑F = 1-[4-[4-[4,6-bis[4-[4-(2-chloroacetyl)piperazin-1-yl]phenyl]-1,3,5-triazin-2-yl]phenyl]piperazin-1-yl]-2-chloro-ethanone, O=C(C[*:1])N1CCN(c2ccc(-c3nc(-c4ccc(N5CCN(C(=O)C[*:2])CC5)cc4)nc(-c4ccc(N5CCN(C(=O)C[*:3])CC5)cc4)n3)cc2)CC1; MSR‑B = molecular scaffold reagent B, 2,4,6-tris[4-(bromomethyl)phenyl]-1,3,5-triazine, c1cc(-c2nc(-c3ccc(C[*:2])cc3)nc(-c3ccc(C[*:3])cc3)n2)ccc1C[*:1]; MSR‑B(3) = molecular scaffold reagent 2,4,6-tris[4-(bromomethyl)phenyl]-1,3,5-triazine, c1cc(-c2nc(-c3ccc(C[*:2])cc3)nc(-c3ccc(C[*:3])cc3)n2)ccc1C[*:1]; MSR‑G = scaffold reagent with three vinyl sulfonyl Michael acceptors (C9H15N3O6S3), O=S(=O)(CC[*:1])N1CN(S(=O)(=O)CC[*:2])CN(S(=O)(=O)CC[*:3])C1; MSR‑H = 1-[4-(bromomethyl)phenyl]-N,N-bis[[4-(bromomethyl)phenyl]methyl]methanamine, c1cc(C[*:1])ccc1CN(Cc1ccc(C[*:2])cc1)Cc1ccc(C[*:3])cc1; MSR‑B″ = 2,4,6-tris[4-(bromomethyl)phenyl]-1,3,5-triazine, c1cc(-c2nc(-c3ccc(C[*:2])cc3)nc(-c3ccc(C[*:3])cc3)n2)ccc1C[*:1]; MSR‑E = scaffold reagent with three bromomethyl groups (C27H24Br3N3O3); 1Nal = N[C@@H](Cc1cccc2ccccc12)C(=O)O; Tle = CC(C)(C)[C@H](N)C(=O)O; MSR‑D = not defined here

What was measured:
[1] = target: T1, MT1-MMP hemopexin domain (UniProt P50281 319-511); test: MT1-MMP direct binding fluorescence polarization (as titled), n = 2
T1 construct: domain: hemopexin domain; also called MMP14; membrane type 1 metalloprotease
Protocol: Example 5: Dissociation Rate Constant Determination of Bicyclic Binders to MT1-MMP Direct Binding Fluorescence Polarization (Anisotropy) Assays Direct Binding Fluorescence Polarization or Anisotropy Assays are performed by titrating a constant concentration of fluorescent tracer (here, the fluoresceinated bicyclic peptide to be studied) with its binding partner (here, the MT1-MMP hemopexin domain). As the concentration of binding partner increases during the titration, the polarization signal changes in proportion to the fraction of bound and unbound material. This allows determination of […] (K_d) quantitatively. Assay data can be fit using standard ligand binding equations.
Typically, concentrations of the tracer are ideally well below the K_d of the tracer:titrant pair, and concentrations chosen are usually at ~1 nM or less. The titrant (binding partner) concentration is varied from 0.1 nM up to typically 5 μM. The range is chosen such that the maximum change in fluorescent polarization can be observed. Buffers employed are phosphate buffered saline in the presence of 0.01% Tween. Experiments were run in black 384 well low-bind/low volume plates (Corning 3820), and the fluorescent polarization signal was measured using a BMG Pherastar FS plate reader. Fluorescent tracers referred to in the text are bicyclic peptides that have been fluoresceinated using 5,6-carboxyfluorescein. Fluoresceination may be performed on the N-terminal amino group of the peptide, which is separated from the bicycle core sequence by a sarcosine spacer (usually Sar5). This can be done during Fmoc solid phase synthesis or post-synthetically (after cyclization with the molecular scaffold reagent and purification) if the N-terminal amino group is unique to the peptide. Fluoresceination can also be performed on the C-terminus, usually on a Lysine introduced as the first C-terminal residue, which is then separated from the bicycle core sequence by a sarcosine spacer (usually Sar6). Thus, N-terminal tracers can have a molecular format described as Fluo-Gly-Sar5-A(Bicycle-CoreSequence), and (BicycleCoreSequence)-A-Sar6-K (Fluo) for a C-terminally fluoresceinated construct.

[2] = target: T2, EphA2 (UniProt P29317 25-534, limits assumed, biotinylated with EZ-Link Sulfo-NHS-LC-Biotin (sites not given)); test: SPR (Biacore), biotinylated EphA2 on streptavidin, peptide as analyte, n = 2
T2 construct: Fc-tagged proteins are also mentioned; also called ephrin type-A receptor 2; biotinylated EphA2
Protocol: SPR Measurements: Non-Fc fusion proteins were biotinylated with EZ-Link™ Sulfo-NHS-LC-Biotin for 1 hour in 4 mM sodium acetate, 100 mM NaCl, pH 5.4 with a 3× molar excess of biotin over protein. The degree of labelling was determined using a Fluorescence Biotin Quantification-Kit (Thermo) after dialysis of the reaction mixture into PBS. For analysis of peptide binding, a Biacore T200 10 instrument was used utilising a XanTec CMD500D chip. Streptavidin was immobilized on the chip using standard amine-coupling chemistry at 25° C. with HBS—N (10 mM HEPES, 0.15 M NaCl, pH 7.4) as the running buffer. Briefly, the carboxymethyl dextran surface was activated with a 7 min injection of a 1:1 ratio of 0.4 M 1-ethyl-3-(3-dimethylaminopropyl) carbodiimide hydrochloride (EDC)/0.1 M N-hydroxy succinimide (NHS) at a flow rate of 10 μl/min. For capture of streptavidin, the protein was diluted to 0.2 mg/ml in 10 mM sodium acetate (pH 4.5) and captured by injecting 120 μl onto the activated chip surface. Residual activated groups were blocked with a 7 min injection of 1 M ethanolamine (pH 8.5):HBS—N (1:1). Buffer was changed to PBS/0.05% Tween 20 and biotinylated EphA2 was captured to a level of 500-1500 RU using a dilution of protein to 0.2 μM in buffer. A dilution series of the peptides was prepared in this buffer with a final DMSO concentration of 0.5% with a top peptide concentration was 50 or 100 nM and 6 further 2-fold dilutions. The SPR analysis was run at 25° C. at a flow rate of […] with 60 seconds association and 900-1200 seconds dissociation. Data were corrected for DMSO excluded volume effects. All data were double-referenced for blank injections and reference surface using standard processing procedures and data processing and kinetic fitting were performed using Scrubber software, version 2.0c (BioLogic Software).
Data were fitted using simple 1:1 binding model allowing for mass transport effects where appropriate for binding of Bicycle Drug Conjugates, a Biacore 3000 instrument was used. For biotinylated proteins immobilisation levels were 1500 RU and the top concentration was 100 nM. Otherwise the method was the same as described above using either the CMD500D or a CM5 chip (GE Healthcare).

[3] = target: human carbonic anhydrase IX (human, UniProt Q16790 38-414); test: competition fluorescence polarization, tracer SEQ ID NO: 11, n = 2

T2 sequence (P29317 25-534 limits assumed): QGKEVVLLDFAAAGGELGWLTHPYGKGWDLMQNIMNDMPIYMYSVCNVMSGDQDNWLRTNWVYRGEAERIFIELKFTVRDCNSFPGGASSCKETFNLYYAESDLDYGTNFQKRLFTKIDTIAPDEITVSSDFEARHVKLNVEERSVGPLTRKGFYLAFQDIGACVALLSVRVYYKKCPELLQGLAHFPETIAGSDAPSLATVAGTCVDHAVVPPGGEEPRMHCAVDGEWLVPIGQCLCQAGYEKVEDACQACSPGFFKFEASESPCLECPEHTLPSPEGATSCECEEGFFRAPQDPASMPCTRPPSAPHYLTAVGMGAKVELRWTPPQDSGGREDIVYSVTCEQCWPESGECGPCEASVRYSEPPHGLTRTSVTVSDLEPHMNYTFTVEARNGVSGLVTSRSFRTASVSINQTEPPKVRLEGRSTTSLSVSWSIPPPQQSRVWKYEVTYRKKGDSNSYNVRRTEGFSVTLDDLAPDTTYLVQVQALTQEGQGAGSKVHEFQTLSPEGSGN

Binder: AC[dA]NE[1Nal][dA]CEDFYD[Tle]C (linker 2-8-15 via MSR‑E, also called 1-93) [Compound I-93]
Ki [1]: < 500 nM

Binder: AC[dA]NE[1Nal][dA]CEDFYD[Tle]C (linker 2-8-15 via MSR‑B, also called 1-90) [Compound I-90]
Ki [1]: < 500 nM

Binder: AC[dA]NE[1Nal][dA]CEDFYD[Tle]C (linker 2-8-15 via MSR‑F, also called 1-94) [Compound I-94]
Ki [1]: < 500 nM

Binder: AC[dA]NE[1Nal][dA]CEDFYD[Tle]C (linker 2-8-15 via MSR‑C, also called 1-91) [Compound I-91]
Ki [1]: < 500 nM

Binder: CTECWVDGWVPC (linker 1-4-12 via MSR‑B(3) (inferred), also called 1-98) [Compound I-98]
Ki [3]: < 500 nM

Binder: AC[dA]NE[1Nal][dA]CEDFYD[Tle]C (linker 2-8-15 via MSR‑D; not fully specified; reading uncertain, also called 1-92) [Compound I-92]
Ki [1]: ≥ 500 nM and < 1000 nM

Binder: AC[dA]NE[1Nal][dA]CEDFYD[Tle]C (linker 2-8-15 via MSR‑G, also called 1-95) [Compound I-95]
Ki [1]: ≥ 500 nM and < 1000 nM

The remaining lines, values ahead:

Kd [2]: < 500 nM
Binder: ADVHCPWGPFWCPVNRPGCA (linker 5-12-19 via MSR‑G; not fully specified) [Compound I-105]

Kd [2]: < 500 nM
Binder: ADVHCPWGPFWCPVNRPGCA (linker 5-12-19 via MSR‑C; also: a note names MSR-B as the scaffold) [Compound I-101]

Ki [1]: < 500 nM
Binder: AC[dA]NE[1Nal][dA]CEDFYD[Tle]C (linker 2-8-15 via MSR‑H, also called 1-96) [Compound I-96]

Ki [3]: ≥ 500 nM and < 1000 nM
B1: Compound I-109 (peptide)
peptide: YTECWVDGWVPY
modifications: also: cyclised via a tyrosine linkage to an unnamed scaffold, places not given here
notes: also called 1-109

Kd [2]: < 500 nM
Binder: ADVHCPWGPFWCPVNRPGCA (linker 5-12-19 via MSR‑B″) [Compound I-100]

Ki [3]: < 500 nM
B2: Compound I-108 (peptide)
peptide: CTEYWVDGWVPC
modifications: also: cyclised via a tyrosine linkage to an unnamed scaffold, places not given here
notes: also called 1-108

Kd [2]: < 500 nM
Binder: ADVHCPWGPFWCPVNRPGCA (linker 5-12-19 via MSR‑H; not fully specified) [Compound I-106]

Kd [2]: < 500 nM
Binder: ADVHCPWGPFWCPVNRPGCA (linker 5-12-19 via MSR‑F; not fully specified) [Compound I-104]
